Assay results reported in patent publication US20220348651A1 (Novartis, published 2022).
Numbering of substitutions follows the chain as printed. Each block holds one binder with its values, some of them ahead of it.

Experiments:
[1] = molecular target: T1, cyno ENTPD2 expressed on NIH/3T3 cells (cynomolgus macaque, UniProt Q9Y5L3 1-495 (human entry)); assay: cell-based or functional assay
T1 chain: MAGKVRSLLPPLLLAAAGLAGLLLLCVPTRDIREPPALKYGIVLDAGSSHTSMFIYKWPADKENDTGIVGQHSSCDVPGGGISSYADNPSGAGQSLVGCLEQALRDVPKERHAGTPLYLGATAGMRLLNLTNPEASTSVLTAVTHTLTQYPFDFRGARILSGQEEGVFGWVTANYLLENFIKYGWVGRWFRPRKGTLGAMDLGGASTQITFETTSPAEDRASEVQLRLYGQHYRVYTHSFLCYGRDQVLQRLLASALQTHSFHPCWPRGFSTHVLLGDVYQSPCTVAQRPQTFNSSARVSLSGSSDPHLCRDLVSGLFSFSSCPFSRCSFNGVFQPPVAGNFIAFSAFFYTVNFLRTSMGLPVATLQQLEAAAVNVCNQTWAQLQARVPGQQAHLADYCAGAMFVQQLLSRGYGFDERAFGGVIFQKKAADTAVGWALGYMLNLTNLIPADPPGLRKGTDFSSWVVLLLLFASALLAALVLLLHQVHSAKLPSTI

[2] = molecular target: T2, human ENTPD2 expressed on cells (human, UniProt Q9Y5L3 1-495); assay: cell-based or functional assay
T2 sequence: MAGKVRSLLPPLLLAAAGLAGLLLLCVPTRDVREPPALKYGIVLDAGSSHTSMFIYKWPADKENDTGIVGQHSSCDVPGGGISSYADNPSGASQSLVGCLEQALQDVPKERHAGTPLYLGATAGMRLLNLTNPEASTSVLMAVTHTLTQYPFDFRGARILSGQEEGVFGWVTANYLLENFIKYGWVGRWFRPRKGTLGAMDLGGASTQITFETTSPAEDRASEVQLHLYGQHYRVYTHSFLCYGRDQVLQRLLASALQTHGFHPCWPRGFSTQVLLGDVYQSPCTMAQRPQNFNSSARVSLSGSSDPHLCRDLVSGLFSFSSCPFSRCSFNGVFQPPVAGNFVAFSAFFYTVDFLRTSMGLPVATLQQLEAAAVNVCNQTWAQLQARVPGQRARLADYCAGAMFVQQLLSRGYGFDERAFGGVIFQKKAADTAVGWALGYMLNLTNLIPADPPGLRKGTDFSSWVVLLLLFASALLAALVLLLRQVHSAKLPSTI

[3] = molecular target: recombinant human ENTPD2 extracellular domain (residues 29-462) with C-terminal Avi-His6 tag (human, UniProt Q9Y5L3 29-462, biotinylated on the AviTag in the epitope binning assay); assay: cell-based or functional assay
[4] = molecular target: T3, recombinant human ENTPD2 (residues 29-462, Y350A mutant) used in crystallographic studies (human, UniProt Q9Y5L3 29-462, N-linked glycosylation observed at Asn129, Asn294, Asn378 and Asn443); assay: X-ray crystal structure of the complex
T3 construct: also called hENTPD2 Y350A; human ENTPD2 (Y350A mutant) ectodomain
T3 sequence: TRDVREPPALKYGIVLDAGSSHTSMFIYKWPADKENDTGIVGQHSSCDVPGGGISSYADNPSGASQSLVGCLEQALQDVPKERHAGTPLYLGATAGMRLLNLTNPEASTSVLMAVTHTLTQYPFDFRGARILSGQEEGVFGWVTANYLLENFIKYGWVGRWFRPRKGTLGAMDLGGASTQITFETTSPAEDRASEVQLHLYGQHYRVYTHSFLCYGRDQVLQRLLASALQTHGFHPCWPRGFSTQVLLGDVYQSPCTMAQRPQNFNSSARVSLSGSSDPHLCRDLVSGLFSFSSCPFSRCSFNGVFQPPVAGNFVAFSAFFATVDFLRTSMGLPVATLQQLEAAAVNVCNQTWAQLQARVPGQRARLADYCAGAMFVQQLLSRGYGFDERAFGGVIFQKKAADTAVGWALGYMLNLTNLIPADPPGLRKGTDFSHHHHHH
Protocol: Structure determination by molecular replacement was performed using the previously determined human ENTPD2 coordinates and Fab coordinates from PDB code 3QRG.

[5] = molecular target: T4, mouse ENTPD2 expressed on cells (mouse, UniProt O55026 1-495); assay: cell-based or functional assay
T4 sequence: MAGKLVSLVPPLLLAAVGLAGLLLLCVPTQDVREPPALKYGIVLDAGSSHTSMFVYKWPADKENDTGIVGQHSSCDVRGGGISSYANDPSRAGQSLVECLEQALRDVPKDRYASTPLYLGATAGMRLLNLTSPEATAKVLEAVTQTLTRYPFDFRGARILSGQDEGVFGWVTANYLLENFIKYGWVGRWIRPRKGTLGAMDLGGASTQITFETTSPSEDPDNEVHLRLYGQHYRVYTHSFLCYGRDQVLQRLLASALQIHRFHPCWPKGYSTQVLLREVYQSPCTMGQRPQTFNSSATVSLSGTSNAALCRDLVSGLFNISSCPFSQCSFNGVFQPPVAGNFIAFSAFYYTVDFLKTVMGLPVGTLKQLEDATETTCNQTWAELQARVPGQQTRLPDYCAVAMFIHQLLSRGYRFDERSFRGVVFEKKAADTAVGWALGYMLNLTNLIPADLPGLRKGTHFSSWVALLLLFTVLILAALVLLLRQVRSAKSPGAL

[6] = molecular target: T4, mouse ENTPD2 expressed on cells; assay: flow cytometry (FACS)

B1: ANTI-HUMAN ENTPD2 MAB17 (antibody, human IgG1, kappa, V domains shown)
VH: EVQLQQFGAELVKPGASVKISCKASGYTFTDYNMDWVKQSHGKSLEWIGDINPKYDISTYNQQFKGKATLTVDKSSSTAYMELRSLTSEDTAVYYCARRGFFLYYGINYYYFDVWGAGTTVTVSS
VL: QIVLTQSPAIMSASLGEEITLTCSASSSVSYIHWYQQKSGTSPTLLIYSTSNLASGVPSRFSGSGSGTFYSLTISSVEAEDAADYYCHQWSSYPWTFGGGTKLEIKR
% inhibition, Cyno ENTPD2 NIH/3T3 Assay [1]: 91% | IC50, Cyno ENTPD2 NIH/3T3 Assay [1]: 1 nM | % inhibition, Human ENTPD2 NIH/3T3 Assay [2]: 98% | % inhibition, RKO Assay [2]: 96% | IC50, Human ENTPD2 NIH/3T3 Assay [2]: 0.6 nM | IC50, RKO Assay [2]: 0.5 nM | IC50, ENTPD2 Biochemical Assay at 1 uM ATP [3]: 0.27 nM

B4: ANTI-HUMAN ENTPD2 FAB23 (Fab, V domains shown)
VH: B1 VH
VL: B1 VL
modifications: N-terminal residue observed and modeled as pyroglutamate in the crystal structure
notes: Fab with the variable regions of mAb17; also called anti-hENTPD2 FAb23; anti-human ENTPD2 MAB17 Fab
buried solvent-accessible surface [4]: ~17500 Å2

B6: ANTI-mouse ENTPD2 MAB13 (antibody, mouse IgG2a, kappa, V domains shown)
VH: QVQLVQSGAELKQPGQSVKISCKASGYTFTHYGMNWVKQAPGQGLKWMGWINTDTGNPTYADDFKGRFVFSLDTSVSTAYLQISNLKNEDTATYYCVRYGTLYSGYGFFFDSWGQGTLVTVSS
VL: DIMMTQSPSSLSVSAGEKATITCKSSQSLFNSNTNKNYLNWYLQKPGQSPKLLFYYASTRHTGVPDRFIGSGSGTDFTLTITSVQDEDLADYYCQQWYSYPWTFGPGTKLEIKR
notes: mouse ENTPD2 selective antibody; also called Anti-ENTPD2 mAb13
ENTPD2 Functional Assay IC50 (mouse ENTPD2 NIH/3T3 cells) [5]: 2.8 nM | EC50 [6]: 3 to 4 nM

B9: ANTI-HUMAN ENTPD2 MAB16 (antibody, human IgG1, kappa, V domains shown)
VH: DIQLQESGPGLVKPSQSLSLTCSVTGYSITSGYYWNWIRQFPGNKLEWMGYISYDGDNNYNPSLKNRISITRDTSKNQFFLKLSSVTTEDTATYYCAGGYYRYGLSYYYVMDYWGQGTSVTVSS
VL: DTVLTQSPASLAVSLGQRATISCKASQSVDYDGNSYMNWYQQKPGQPPKLLIYAASNLESGIPARFSGSGSGTDFTLNIHPVEEEDAATYYCQQSNEDPPTFGGGTKLEIKR
% inhibition, Cyno ENTPD2 NIH/3T3 Assay [1]: 5% | IC50, Cyno ENTPD2 NIH/3T3 Assay [1]: > 133 nM | % inhibition, Human ENTPD2 NIH/3T3 Assay [2]: 30% | IC50, Human ENTPD2 NIH/3T3 Assay [2]: > 133 nM | IC50, ENTPD2 Biochemical Assay at 1 uM ATP [3]: 77.3 nM

B11: ANTI-HUMAN ENTPD2 FAB22 (Fab, V domains shown)
VH: B9 VH with D1E, I2V, Q3K, Q5E, E6Q, G50S, S124A
VL: B9 VL with T2I, V3K, L4M, I110L
notes: Fab with the CDRs of mAb16; human CH1 and kappa constant regions; also called anti-hENTPD2 FAb22
buried solvent-accessible surface [4]: ~16700 Å2

B12: ANTI-HUMAN ENTPD2 MAB11 (antibody, human IgG1, kappa, V domains shown)
VH: EVQLLESGGGLVQSGGSLRLSCAASGFTFSSYAMSWVRQAPGKGLEWVSVISGSGGSTYYADSVKGRFTISRDNSKNTLYLQMNSLRAEDTAVYYCARGDDYGDDYYYYGMDVWGQGTTVTVSS
VL: not shown
% inhibition, Human ENTPD2 NIH/3T3 Assay [2]: 55% | IC50, Human ENTPD2 NIH/3T3 Assay [2]: 1.5 nM

B13: ANTI-HUMAN ENTPD2 MAB12 (antibody, human IgG1, kappa, V domains shown)
VH: EVLLVESGGGLVQPGGSLRLSCAASGFTFNSCSMNWVRQAPGKGLEWVSYISSSSSTIYYADSVKGRFTISRDNAKNSLYLQMNSLKDEDTAVYYCARDQGNWNYDDYYNGLDVWGQGTTVTVSS
VL: not shown
% inhibition, Human ENTPD2 NIH/3T3 Assay [2]: 68% | IC50, Human ENTPD2 NIH/3T3 Assay [2]: 26.6 nM

Other lines, results leading:

IC50, ENTPD2 Biochemical Assay at 1 uM ATP [3]: 17.5 nM
B2: ANTI-HUMAN ENTPD2 MAB20 (antibody, human IgG1, kappa, V domains shown)
VH: B1 VH with K54N, S58T, T59S, Q63K, I107S, N108S
VL: B1 VL with I32M, T44K

IC50, ENTPD2 Biochemical Assay at 1 uM ATP [3]: 0.87 nM
B3: ANTI-HUMAN ENTPD2 MAB21 (antibody, human IgG1, kappa, V domains shown)
VH: EVQLQQSGPELVKPGASVKISCKTSGYTFTEYTMHWVKQSHGKSLEWIGGINPNNGITTYNQKFKGKATLTVDKSSSTAYMDLRSLTSEGSAVYYCARRGFPIYYYGTSLYYFDYWGQGTTLTVSS
VL: B1 VL with I32M, K38R, T44K, S49T

IC50, ENTPD2 Biochemical Assay at 1 uM ATP [3]: 4.09 nM
B5: ANTI-HUMAN ENTPD2 MAB19 (antibody, human IgG1, kappa, V domains shown)
VH: B1 VH with A16T, K54N, S58T, Q63R, L103P, I107N, N108S
VL: B1 VL with A9T, I32M, T44K, S92N

ENTPD2 Functional Assay IC50 (mouse ENTPD2 NIH/3T3 cells) [5]: 4.6 nM
B7: ANTI-mouse ENTPD2 MAB14 (antibody, mouse IgG2a, kappa, V domains shown)
VH: B6 VH with T30W
VL: B6 VL

ENTPD2 Functional Assay IC50 (mouse ENTPD2 NIH/3T3 cells) [5]: 5.9 nM
B8: ANTI-mouse ENTPD2 MAB15 (antibody, mouse IgG2a, kappa, V domains shown)
VH: B6 VH with T30H
VL: B6 VL

% inhibition, Cyno ENTPD2 NIH/3T3 Assay [1]: 68% | IC50, Cyno ENTPD2 NIH/3T3 Assay [1]: 20 nM | % inhibition, Human ENTPD2 NIH/3T3 Assay [2]: 88% | IC50, Human ENTPD2 NIH/3T3 Assay [2]: 0.4 nM
B10: ANTI-HUMAN ENTPD2 MAB18 (antibody, human IgG1, kappa, V domains shown)
VH: DIQLQESGPGLVKPSQSLSLTCSVTGYSITSGYYWNWIRQFPGNKLEWMGYISYDGDNNYNPSLKNRISITRDTSKNQFFLKLSSVTTEDTATYYCAGGYYRYGLGSYSGSYYYVMDYWGQGTSVTVSS
VL: B9 VL
